Blank lines part the entries; values can stand above or below the binder they belong to.
Assays:
[1] = target: T1, human ALPL (tissue non-specific alkaline phosphatase) expressed on the surface of CHO cells (human, UniProt P05186 18-501); test: cell-based or functional assay
T1 sequence (looked up): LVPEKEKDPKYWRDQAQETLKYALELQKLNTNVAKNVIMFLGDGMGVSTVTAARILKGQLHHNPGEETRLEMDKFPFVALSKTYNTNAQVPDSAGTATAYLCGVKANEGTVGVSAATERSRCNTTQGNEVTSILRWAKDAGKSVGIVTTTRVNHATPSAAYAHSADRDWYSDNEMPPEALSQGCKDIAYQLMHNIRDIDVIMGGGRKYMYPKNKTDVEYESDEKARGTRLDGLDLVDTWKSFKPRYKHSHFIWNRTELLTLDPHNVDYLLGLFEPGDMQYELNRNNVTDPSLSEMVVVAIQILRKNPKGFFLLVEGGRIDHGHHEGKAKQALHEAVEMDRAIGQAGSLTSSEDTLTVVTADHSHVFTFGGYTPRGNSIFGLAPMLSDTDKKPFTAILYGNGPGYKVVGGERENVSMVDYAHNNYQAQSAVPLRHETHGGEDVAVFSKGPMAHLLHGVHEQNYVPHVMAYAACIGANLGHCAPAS

[2] = target: T2, human ALPI (intestinal alkaline phosphatase) expressed on the surface of CHO cells (human, UniProt P09923 20-503); test: cell-based or functional assay
T2 sequence (looked up): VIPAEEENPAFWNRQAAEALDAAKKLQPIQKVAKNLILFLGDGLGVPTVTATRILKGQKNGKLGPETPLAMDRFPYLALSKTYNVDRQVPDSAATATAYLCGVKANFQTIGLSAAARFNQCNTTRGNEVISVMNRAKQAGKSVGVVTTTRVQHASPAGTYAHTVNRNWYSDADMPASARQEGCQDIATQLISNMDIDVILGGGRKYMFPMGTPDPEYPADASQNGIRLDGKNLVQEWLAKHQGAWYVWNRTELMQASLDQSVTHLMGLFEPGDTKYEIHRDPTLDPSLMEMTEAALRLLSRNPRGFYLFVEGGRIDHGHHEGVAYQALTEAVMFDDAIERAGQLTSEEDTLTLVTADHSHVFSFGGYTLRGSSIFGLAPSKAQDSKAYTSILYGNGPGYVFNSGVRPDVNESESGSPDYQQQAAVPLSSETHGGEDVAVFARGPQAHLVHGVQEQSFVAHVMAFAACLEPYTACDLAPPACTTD

[3] = target: T3, human ALPP (alkaline phosphatase, placental type) expressed on the surface of CHO cells (human, UniProt P05187 23-506); test: cell-based or functional assay
[4] = target: T4, human ALPPL2 (alkaline phosphatase, germ cell type) expressed on the surface of CHO cells (human, UniProt P10696 20-503); test: cell-based or functional assay
[5] = target: T4, human ALPPL2 (alkaline phosphatase, …); test: flow cytometry on CHO-ALPPL2 cells, apparent KD (KDapp)
Method in brief: (§1)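 Cell-surface binding to CHO cells stably transfected with human ALPP, ALPPL2, ALPI or ALPL; cells detached with 0.1% EDTA/PBS, incubated with biparatopic VHH-hFc drug conjugates over a concentration range for 1 hr on ice. Bound agent detected with FITC anti-human Ab (30 min, ice, dark) by flow cytometry; KDapp derived from binding.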

[6] = target: T2, human ALPI (intestinal alkaline …); test: flow cytometry, CHO-ALPI cells
[7] = target: T3, human ALPP (alkaline phosphatase, …); test: flow cytometry on CHO-ALPP cells, apparent KD (KDapp)
Method in brief: as §1

[8] = target: T1, human ALPL (tissue non-specific …); test: flow cytometry, CHO-ALPL cells

T3 sequence (P05187 23-506 limits assumed): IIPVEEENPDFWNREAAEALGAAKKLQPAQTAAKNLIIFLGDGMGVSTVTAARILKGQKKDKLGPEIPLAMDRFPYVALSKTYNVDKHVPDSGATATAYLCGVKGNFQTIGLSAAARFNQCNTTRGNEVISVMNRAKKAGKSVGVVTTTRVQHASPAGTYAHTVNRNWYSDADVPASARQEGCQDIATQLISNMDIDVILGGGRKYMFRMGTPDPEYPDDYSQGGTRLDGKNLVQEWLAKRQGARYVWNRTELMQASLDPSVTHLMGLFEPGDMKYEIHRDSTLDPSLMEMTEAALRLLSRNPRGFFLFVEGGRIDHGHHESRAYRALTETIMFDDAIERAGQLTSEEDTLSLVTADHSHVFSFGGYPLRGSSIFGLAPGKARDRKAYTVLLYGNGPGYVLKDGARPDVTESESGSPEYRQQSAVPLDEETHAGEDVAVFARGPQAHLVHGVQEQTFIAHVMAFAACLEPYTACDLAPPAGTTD
T4 sequence (P10696 20-503): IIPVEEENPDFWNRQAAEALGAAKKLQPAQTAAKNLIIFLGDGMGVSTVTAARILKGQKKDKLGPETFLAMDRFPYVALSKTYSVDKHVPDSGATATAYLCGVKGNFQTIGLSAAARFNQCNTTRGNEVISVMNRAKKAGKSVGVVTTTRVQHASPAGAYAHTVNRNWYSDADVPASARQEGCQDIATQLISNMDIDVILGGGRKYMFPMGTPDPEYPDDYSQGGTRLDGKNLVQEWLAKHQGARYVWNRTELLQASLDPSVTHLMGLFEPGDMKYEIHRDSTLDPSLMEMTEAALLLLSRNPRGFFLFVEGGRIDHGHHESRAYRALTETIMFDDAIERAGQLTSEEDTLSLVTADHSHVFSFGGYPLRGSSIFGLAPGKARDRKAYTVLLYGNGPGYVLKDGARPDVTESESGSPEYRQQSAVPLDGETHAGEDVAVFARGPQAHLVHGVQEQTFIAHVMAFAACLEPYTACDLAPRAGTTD

Kd [5]: 5.5 nM
Kd [7]: 9.4 nM
B1: D10 E06-hFc (S239/442C T366Y/Y407T), [G4S]1 linker, MC-vc-PAB-MMAE conjugate, #677 (Fc fusion, DAR 4)
chain 1: QVQLVESGGGLVQPGGSLRLSCAASGSIFSVNTMGWYRQAPGKQRDLVAVATSGGTIHYADSVKGRFTISRDNAKNTVYLQMNSLKPEDTAVYYCNLVVPYGMIAGDHDYWGQGTKVTVSSGGGGSEPKSSDKTHTCPPCPAPELLGGPCVFLFPPKPKDTLMISRTPEVTCVVVDVSHEDPEVKFNWYVDGVEVHNAKTKPREEQYNSTYRVVSVLTVLHQDWLNGKEYKCKVSNKALPAPIEKTISKAKGQPREPQVYTLPPSRDELTKNQVSLYCLVKGFYPSDIAVEWESNGQPENNYKTTPPVLDSDGSFFLYSKLTVDKSRWQQGNVFSCSVMHEALHNHYTQKSLCLSPGK
chain 2: QVHLVESGGGLVQAGGSLRLSCAASRRSFSEYAMGWFRQAPGKEREFVAAIGWSGVIEYADSVKGRFTISRDNAKDTVYLQMNSLKPEDTAVYYCAAGLGIRVVSQTPAYWGQGTQVTVSSGGGGSEPKSSDKTHTCPPCPAPELLGGPCVFLFPPKPKDTLMISRTPEVTCVVVDVSHEDPEVKFNWYVDGVEVHNAKTKPREEQYNSTYRVVSVLTVLHQDWLNGKEYKCKVSNKALPAPIEKTISKAKGQPREPQVYTLPPSRDELTKNQVSLTCLVKGFYPSDIAVEWESNGQPENNYKTTPPVLDSDGSFFLTSKLTVDKSRWQQGNVFSCSVMHEALHNHYTQKSLCLSPGK
modifications: MC-vc-PAB-MMAE on Cys of S239C and S442C (EU numbering)
notes: Biparatopic knob-into-hole VHH-hFc heterodimer, DAR 4; also called D10-E06-hFc-vcPAB-MMAE; D10-E06 hFc-vc-MMAE
IC50 at 96 h, cell-killing of CHO-ALPL cells [1]: > 1000 nM
IC50 at 96 h, cell-killing of CHO-ALPI cells [2]: > 1000 nM
IC50 at 96 h, cell-killing of CHO-ALPP cells [3]: 3.3 nM
IC50 at 96 h, cell-killing of CHO-ALPPL2 cells [4]: 21.1 nM
binding result [6]: no binding (tested: 350 nM (highest concentration))
binding result [8]: no binding (tested: 350 nM (highest concentration))

Kd [5]: 5.9 nM
Kd [7]: 8.3 nM
B2: D10 E06-hFc (S239/442C T366Y/Y407T), [G4S]3 linker, MC-vc-PAB-MMAE conjugate, #634 (Fc fusion, DAR 4)
chain 1: QVQLVESGGGLVQPGGSLRLSCAASGSIFSVNTMGWYRQAPGKQRDLVAVATSGGTIHYADSVKGRFTISRDNAKNTVYLQMNSLKPEDTAVYYCNLVVPYGMIAGDHDYWGQGTKVTVSSGGGGSGGGGSGGGGSEPKSSDKTHTCPPCPAPELLGGPCVFLFPPKPKDTLMISRTPEVTCVVVDVSHEDPEVKFNWYVDGVEVHNAKTKPREEQYNSTYRVVSVLTVLHQDWLNGKEYKCKVSNKALPAPIEKTISKAKGQPREPQVYTLPPSRDELTKNQVSLYCLVKGFYPSDIAVEWESNGQPENNYKTTPPVLDSDGSFFLYSKLTVDKSRWQQGNVFSCSVMHEALHNHYTQKSLCLSPGK
chain 2: QVHLVESGGGLVQAGGSLRLSCAASRRSFSEYAMGWFRQAPGKEREFVAAIGWSGVIEYADSVKGRFTISRDNAKDTVYLQMNSLKPEDTAVYYCAAGLGIRVVSQTPAYWGQGTQVTVSSGGGGSGGGGSGGGGSEPKSSDKTHTCPPCPAPELLGGPCVFLFPPKPKDTLMISRTPEVTCVVVDVSHEDPEVKFNWYVDGVEVHNAKTKPREEQYNSTYRVVSVLTVLHQDWLNGKEYKCKVSNKALPAPIEKTISKAKGQPREPQVYTLPPSRDELTKNQVSLTCLVKGFYPSDIAVEWESNGQPENNYKTTPPVLDSDGSFFLTSKLTVDKSRWQQGNVFSCSVMHEALHNHYTQKSLCLSPGK
modifications: MC-vc-PAB-MMAE on Cys of S239C and S442C (EU numbering)
notes: Biparatopic knob-into-hole VHH-hFc heterodimer, DAR 4; also called D10-E06 hFc-vcPAB-MMAE; D10-E06 hFc-vc-MMAE
IC50 at 96 h, cell-killing of CHO-ALPL cells [1]: > 1000 nM
IC50 at 96 h, cell-killing of CHO-ALPI cells [2]: > 1000 nM
IC50 at 96 h, cell-killing of CHO-ALPP cells [3]: 9.2 nM
IC50 at 96 h, cell-killing of CHO-ALPPL2 cells [4]: 9.1 nM
binding result [6]: no binding (tested: 350 nM (highest concentration))
binding result [8]: no binding (tested: 350 nM (highest concentration))

From patent publication US20260216242A1 (ALMAC DISCOVERY, published 2026)
